Experimental data reported in patent US20250304937A1.
Like-named read-outs stand apart in the source and are kept apart here.

What was measured:
[1] = target: IVIg (Octagam), pool of human IgG (human); experiment: cell-based or functional assay
[2] = target: IVIg (Octagam), pool of human IgG (human); experiment: cell-based or functional assay; remark: listed apart in the source

pCART124 (IdeS control with N terminal methionine and histidine tag) (enzyme)
1st IgG heavy chain IgG to scIgG, Conc. of enzyme (ng/ml), gel [1]: 1900 ng/mL | 2nd IgG heavy chain scIgG to F(ab')2, Conc. of enzyme (ng/ml), gel [1]: 7500 ng/mL | 2nd IgG heavy chain scIgG to F(ab')2, Conc. of enzyme (ng/ml), gel [2]: 6000 ng/mL
